Results on seven molecules are retold here after patent US20140057323A1, “ENHANCED CELLODEXTRIN METABOLISM” (The Board of Trustees of the University of Illinois, priority 2011, published 2014).

Where a chain is given by its changes, count along the chain named. Names and notes keep the numbering of the source.

Data set [1] deals with S. cerevisiae hexokinase Hxk1 (NP_116711) (Saccharomyces cerevisiae, UniProt P04806). Briefly: Effect of cellobiose on activity of purified hexokinase Hxk1. In kind it is biochemical. The following applies: Hxk1, up to 184 mM cellobiose. As for the experimental part: (§1) The amount of hexokinase activity in cell extracts was determined by coupling the production of glucose-6-phosphate to the reduction of NADP^+ by glucose-6-phosphate dehydrogenase. 10 μg of cell extract was added to 1 mL of an assay mixture consisting of 50 mM Tris-HCl [pH 8.0 at 30° C.], 13.3 mM MgCl2, 540 μM ATP, 20 μM NADP^+, 1 U S. cerevisiae glucose-6-phosphate dehydrogenase, and 112 mM glucose. The number of pmol of glucose-6-phosphate produced per second was calculated by multiplying the rate of increase at 340 nm by 1.85×10^3, a conversion that was established from a glucose-6-phosphate standard curve.
Chain of S. cerevisiae hexokinase Hxk1 (NP_116711) (P04806 whole entry): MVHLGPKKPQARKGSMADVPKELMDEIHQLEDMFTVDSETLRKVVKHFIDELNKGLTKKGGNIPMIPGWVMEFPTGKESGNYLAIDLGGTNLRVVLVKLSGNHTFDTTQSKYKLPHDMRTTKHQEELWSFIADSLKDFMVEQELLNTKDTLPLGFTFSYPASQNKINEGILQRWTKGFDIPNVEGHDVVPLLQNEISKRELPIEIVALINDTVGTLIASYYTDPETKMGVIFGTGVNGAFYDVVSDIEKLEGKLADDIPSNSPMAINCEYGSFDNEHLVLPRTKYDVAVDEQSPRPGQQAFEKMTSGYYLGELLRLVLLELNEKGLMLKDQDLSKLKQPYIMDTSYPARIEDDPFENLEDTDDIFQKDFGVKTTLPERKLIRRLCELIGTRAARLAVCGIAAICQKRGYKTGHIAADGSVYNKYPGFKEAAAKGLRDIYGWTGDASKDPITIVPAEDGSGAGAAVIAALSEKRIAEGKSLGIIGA
(§2) The Hxk1 (Accession: NP_116711), Hxk2 (Accession: NP_011261), and Glk1 (Accession: NP_009890) genes were expressed and purified in E. coli. First, the genes were cloned into the PmlI and XhoI restriction sites of the expression plasmid pET302. Hxk1 gene was amplified using the following primers: […]
(§3) These constructs were transformed into the BL21(DE3) strain of E. coli, and the proteins were expressed and purified using Nickel-NTA agarose beads from Qiagen following the protocol for native batch purification provided by Qiagen. […] Protein concentrations were determined by the absorbance at 280 nm using extinction coefficients of 45840 M^−1 cm^−1, 45840 M^−1 cm^−1 and 30370 M^−1 cm^−1, for Hxk1, Hxk2 and Glk1, respectively. […]

Data set [2] deals with T1, Neurospora crassa cellodextrin transporter CDT-1 (NCU00801), wild type, SEQ ID NO: 9, GFP-tagged, in S. cerevisiae D452-2 (Neurospora crassa, UniProt Q7SCU1).
T1 construct: [3H]-cellobiose uptake into whole cells
T1 sequence (Q7SCU1 1-579): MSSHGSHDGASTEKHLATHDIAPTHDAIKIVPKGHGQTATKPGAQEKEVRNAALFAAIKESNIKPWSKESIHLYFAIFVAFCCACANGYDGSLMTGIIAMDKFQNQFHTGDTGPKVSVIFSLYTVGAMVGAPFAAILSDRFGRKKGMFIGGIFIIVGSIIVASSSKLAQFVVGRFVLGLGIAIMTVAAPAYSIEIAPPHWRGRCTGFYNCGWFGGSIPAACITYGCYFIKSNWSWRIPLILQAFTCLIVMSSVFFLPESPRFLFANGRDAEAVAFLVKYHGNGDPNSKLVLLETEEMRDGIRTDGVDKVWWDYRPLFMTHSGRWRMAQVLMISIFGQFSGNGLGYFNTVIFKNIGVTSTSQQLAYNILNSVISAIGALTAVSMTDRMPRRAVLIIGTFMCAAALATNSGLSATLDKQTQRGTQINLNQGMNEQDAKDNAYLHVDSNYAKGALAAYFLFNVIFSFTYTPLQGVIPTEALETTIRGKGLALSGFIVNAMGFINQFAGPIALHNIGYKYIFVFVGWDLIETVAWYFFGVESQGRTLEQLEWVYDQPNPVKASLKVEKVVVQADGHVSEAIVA
The data set can be described thus: Transporter kinetics, [3H]-cellobiose uptake into yeast. In kind it is cell-based. The following applies: CDT-1 WT.

Data set [3] deals with S. cerevisiae hexokinase Hxk2 (NP_011261) (Saccharomyces cerevisiae, UniProt P04807). Briefly: Effect of cellobiose on activity of purified hexokinase Hxk2. In kind it is biochemical. The following applies: read-out: reduction of hexokinase activity by cellobiose. As for the experimental part: as §1, §2, §3
Chain of S. cerevisiae hexokinase Hxk2 (NP_011261) (P04807 whole entry): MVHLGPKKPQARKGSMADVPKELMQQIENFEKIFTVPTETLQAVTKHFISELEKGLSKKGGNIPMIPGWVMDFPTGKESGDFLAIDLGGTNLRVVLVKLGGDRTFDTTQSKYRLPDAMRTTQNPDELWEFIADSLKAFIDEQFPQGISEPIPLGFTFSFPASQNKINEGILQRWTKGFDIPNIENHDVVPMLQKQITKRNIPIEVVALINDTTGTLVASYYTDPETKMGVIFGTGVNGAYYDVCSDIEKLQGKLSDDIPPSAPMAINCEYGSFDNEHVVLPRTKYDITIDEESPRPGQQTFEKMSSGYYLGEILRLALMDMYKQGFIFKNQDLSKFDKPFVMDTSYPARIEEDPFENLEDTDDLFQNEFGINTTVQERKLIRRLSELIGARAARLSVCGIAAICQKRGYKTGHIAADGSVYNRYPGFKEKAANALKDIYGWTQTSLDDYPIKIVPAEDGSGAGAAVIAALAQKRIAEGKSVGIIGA
The target in data set [4] is S. cerevisiae hexokinase Glk1 (NP_009890) (Saccharomyces cerevisiae, UniProt P17709). The data set can be described thus: Effect of cellobiose on activity of purified hexokinase Glk1. In kind it is biochemical. To be noted: read-out: reduction of hexokinase activity by cellobiose. The method, then:
as §1, §2, §3

Substrate in data set [5]: OC[C@H]1O[C@@H](O[C@H]2[C@H](O)[C@@H](O)C(O)O[C@@H]2CO)[C@H](O)[C@@H](O)[C@@H]1O
Briefly: Kinetic parameters of purified SdCBP (glucose oxidase/peroxidase assay). It is filed as biochemical, Saccharophagus degradans. To be noted: other: SdCBP, glucose production from cellobiose, 50 mM phosphate pH 6.0. The method, then: (§4) The amount of cellobiase activity in cell extracts was determined by the Glucose oxidase/Peroxidase assay. […] The number of pmol of glucose produced per second was calculated by multiplying the rate of increase at 436 nm by 1.17×10^3, a conversion that was established from a glucose standard curve.
(§5) GH1-1 and SdCBP were purified directly from the D452-2 yeast strains described above. 200 mL cultures in DOB-uracil-leucine were grown to an OD (600 nm) of ˜7. Cells were pelleted and washed 1× with 40 mL ddH2O. Cell pellets were resuspended in 25 mL of 50 mM NaH2PO4 [pH 8.0], 300 mM NaCl, 10 mM imidazole, 2 mM DTT, and Roche Complete EDTA-free Protease Inhibitor Cocktail, and lysed by passage through an Avestin EmulsiFlex C-3 homogenizer at 20,000 P.S.I. Cell debris was then pelleted, and proteins purified using Nickel-NTA agarose beads from Qiagen following the protocol for native batch purification provided by Qiagen. Protein eluted from the beads was buffer exchanged into a buffer consisting of phosphate buffered saline (PBS), 10% glycerol, and 2 mM DTT, snap-frozen in (1)N2 and stored at −80° C. Protein concentrations were determined by the absorbance at 280 nm using extinction coefficients of 108750 M^−1 cm^−1 and 178540 M^−1 cm^−1, for GH1-1 and SdCBP, respectively.
(§6) A 1 mL assay included either […] of GH1-1 or […] SdCBP.
(§7) To assay the transglycosylation activity of GH1-1 and SdCBP, both enzymes were enriched from cell extracts by IMAC. […] The kinetic parameters of the enriched proteins were also measured, and the results are depicted in FIG. 12 and quantified in Table 12.

Substrate in data set [6]: OC[C@H]1O[C@@H](O[C@H]2[C@H](O)[C@@H](O)C(O)O[C@@H]2CO)[C@H](O)[C@@H](O)[C@@H]1O
Briefly: Kinetic parameters of purified GH1-1 (glucose oxidase/peroxidase assay). It is filed as biochemical, Neurospora crassa. To be noted: other: GH1-1, glucose production from cellobiose, 50 mM phosphate pH 6.0. As for the experimental part:
as §4, §5, §6, §7

Substrate in data set [7]: OC[C@H]1O[C@@H](O[C@H]2[C@H](O)[C@@H](O)C(O)O[C@@H]2CO)[C@H](O)[C@@H](O)[C@@H]1O
The data set can be described thus: cells, lysate or membranes. The following applies: other: CDT-1 WT, [3H]-cellobiose uptake, pH 5.6.

Substrate in data set [8]: OC[C@H]1O[C@@H](O[C@H]2[C@H](O)[C@@H](O)C(O)O[C@@H]2CO)[C@H](O)[C@@H](O)[C@@H]1O
Briefly: Transporter kinetics, [3H]-cellobiose uptake into yeast. In kind it is cell-based, Neurospora crassa. The following applies: pH 5.6.

Chain of S. cerevisiae hexokinase Glk1 (NP_009890) (P17709 whole entry): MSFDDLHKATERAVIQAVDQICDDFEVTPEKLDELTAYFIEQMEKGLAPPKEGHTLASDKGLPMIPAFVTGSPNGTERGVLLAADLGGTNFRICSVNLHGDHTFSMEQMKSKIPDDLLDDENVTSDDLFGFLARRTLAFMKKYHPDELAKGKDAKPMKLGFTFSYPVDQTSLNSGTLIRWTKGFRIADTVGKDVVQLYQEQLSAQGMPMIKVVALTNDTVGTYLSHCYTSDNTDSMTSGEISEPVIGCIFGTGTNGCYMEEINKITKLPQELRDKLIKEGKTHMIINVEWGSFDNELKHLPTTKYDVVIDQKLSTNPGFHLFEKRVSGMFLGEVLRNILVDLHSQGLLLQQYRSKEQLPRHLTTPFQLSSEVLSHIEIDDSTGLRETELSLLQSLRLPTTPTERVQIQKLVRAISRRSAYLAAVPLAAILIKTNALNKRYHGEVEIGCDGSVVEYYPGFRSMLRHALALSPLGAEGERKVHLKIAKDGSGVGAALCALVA

What is called Vmax is the rate approached at saturating substrate. As to `OC[C@H]1O[C@@H](O[C@H]2[C@H](O)[C@@H](O)C(O)O[C@@H]2CO)[C@H](O)[C@@H](O)[C@@H]1O` (some centres unmarked) [cellobiose], the “effect of cellobiose on hexokinase activity” value in data set [1] is listed as “unaffected”. The Vmax in data set [2] worked out at 0.60 ± 0.03 µmol/s. In addition, the inhibition at 184000 µM in data set [3] and in data set [4] was about 20% in each case.

B1: Saccharophagus degradans cellobiose phosphorylase SdCBP, wild type, SEQ ID NO: 12 (Saccharophagus degradans 2-40) (protein)
chain: MKFGHFDDKAREYVITDPKTPYPWINYLGNEDFFSLVSNTGGGYSFYKDAKFRRLTRYRYNNVPVDNGGKYFYINDSGDVWSPGWKPVKAELDAYSCAHGLSYTRITGERNGIQAEVLSFIPLGTWAEIQKVSLKNTSGATKKFKLFSFAEWCLWNAEDDMTNFQRNFSTGEVEVEDSVIYHKTEFKERRNHYAFYSVNAPIQGFDTDRDKWKGLYNDFDKPDAVFEGEPRNSEAHGWSPIASHYLEVELAPGESKDLIFVLGYIEVAPENKWESKGVINKSPAKELIARFDSVEKVDAELTKLADYWANLLSTYSVESGDEKLDRMVNIWNQYQCMVTFNMSRSASFFESGIGRGMGFRDSNQDLIGFVHQVPERARERIIDIASTQFEDGSAYHQYQPLTKRGNNAIGGNFNDDPLWLILSTTDYIKETGDFSILEEQVPYDNDASKATSHFEHLKRSFYHTVNNLGPHGLPLIGRADWNDCLNLNCFSEDPNESFQTTGNKTGRTAESLMIAGLFVLYGNEFVKLCREIGQDGEAAEAQAHIDQMVEAVKKHGWDGEWFLRAYDYYGKKVGSKENEEGKIFIESQGFCGMAGIGLEDGLVEKSMDSVKEWLDCDYGIVLQQPAFTKYYIEYGEISTYPAGYKENAGIFCHNNPWIMITETLLGRGDKAFEYYRKIAPAYLEEISDLHKVEPYAYCQMIAGKDAYLPGEGKNSWLTGTASWNFAAITQYILGVKPDYSGLAINPCIPSSWDGFKVTRKYRGATYNIIVTNPTHVSKGVKSLTLNGNAIDGYIVPPQQAGTVCNVEVTLG
The Km is the substrate concentration at which the rate is half of its maximum. For orientation: kcat means the maximal rate divided by the concentration of active sites. By kcat/Km is commonly meant the turnover number divided by the Michaelis constant. B1: in data set [5], the Km worked out at 650 µM, the kcat stood at 7 s⁻¹ and the kcat/Km amounted to 11500 M⁻¹ s⁻¹.

B2: Neurospora crassa β-glucosidase GH1-1 (NCU00130) (Neurospora crassa OR74A) (protein)
chain: MSLPKDFLWGFATAAYQIEGAIHADGRGPSIWDTFCNIPGKIADGSSGAVACDSYNRTKEDIDLLKSLGATAYRFSISWSRIIPVGGRNDPINQKGIDHYVKFVDDLLEAGITPFITLFHWDLPDGLDKRYGGLLNREEFPLDFEHYARTMFKAIPKCKHWITFNEPWCSSILGYNSGYFAPGHTSDRTKSPVGDSAREPWIVGHNLLIAHGRAVKVYREDFKPTQGGEIGITLNGDATLPWDPEDPLDVEACDRKIEFAISWFADPIYFGKYPDSMRKQLGDRLPEFTPEEVALVKGSNDFYGMNHYTANYIKHKKGVPPEDDFLGNLETLFYNKKGNCIGPETQSFWLRPHAQGFRDLLNWLSKRYGYPKIYVTENGTSLKGENAMPLKQIVEDDFRVKYFNDYVNAMAKAHSEDGVNVKGYLAWSLMDNFEWAEGYETRFGVTYVDYENDQKRYPKKSAKSLKPLFDSLIKKD
B2: in data set [6], the Michaelis-Menten constant (Km) came out at 320 µM, the turnover number (kcat) came to 7 s⁻¹ and the kcat/Km worked out at 21900 M⁻¹ s⁻¹.

B3: Neurospora crassa cellodextrin transporter CDT-1 (NCU00801), wild type, SEQ ID NO: 9, GFP-tagged, in S. cerevisiae D452-2 (Neurospora crassa OR74A) (protein)
chain: T1 sequence (Q7SCU1 1-579)
As for B3, in data set [7], the Michaelis constant (Km) stood at 7.6 ± 1.5 µM.

B4: Neurospora crassa cellodextrin transporter CDT-1 (SEQ ID NO: 9) variant F213L, GFP-tagged, in S. cerevisiae D452-2 (Neurospora crassa OR74A; F213L) (protein)
chain: T1 sequence (Q7SCU1 1-579) with F213L
notes: [3H]-cellobiose uptake
As for B4, in data set [8] (other: CDT-1 F213L), the Michaelis constant (Km) is 188.8 ± 55.3 µM.

B5: Neurospora crassa cellodextrin transporter CDT-1 (SEQ ID NO: 9) variant G91A, GFP-tagged, in S. cerevisiae D452-2 (Neurospora crassa OR74A; G91A) (protein)
chain: T1 sequence (Q7SCU1 1-579) with G91A
notes: [3H]-cellobiose uptake
Regarding B5, in data set [8] (other: CDT-1 G91A), the Michaelis-Menten constant (Km) was 43.5 ± 10.1 µM.

B6: Neurospora crassa cellodextrin transporter CDT-1 (SEQ ID NO: 9) variant F335A, GFP-tagged, in S. cerevisiae D452-2 (Neurospora crassa OR74A; F335A) (protein)
chain: T1 sequence (Q7SCU1 1-579) with F335A
notes: [3H]-cellobiose uptake
On to B6, for which, in data set [8] (other: CDT-1 F335A), the Michaelis-Menten constant (Km) amounted to 114.8 ± 46.4 µM.
